Test [1] has as its target T1, hIL-6R (Homo sapiens, UniProt P08887).
T1 sequence (P08887 20-355 limits assumed): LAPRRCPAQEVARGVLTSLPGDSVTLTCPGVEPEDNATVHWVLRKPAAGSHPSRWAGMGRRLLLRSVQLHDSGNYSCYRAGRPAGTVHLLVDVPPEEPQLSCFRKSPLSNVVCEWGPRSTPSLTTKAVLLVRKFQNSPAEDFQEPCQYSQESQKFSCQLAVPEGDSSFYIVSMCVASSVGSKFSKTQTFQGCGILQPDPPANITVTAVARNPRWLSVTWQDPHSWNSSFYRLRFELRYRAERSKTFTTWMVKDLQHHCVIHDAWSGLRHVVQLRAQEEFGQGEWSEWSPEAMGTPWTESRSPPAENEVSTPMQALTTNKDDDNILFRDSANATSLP
The test is described as follows: IgG ELISA, binding to hIL-6R in mouse serum with or without kynurenine. To be noted: Table 20: condition 1 (mouse serum without kynurenine) vs condition 2 (mouse serum in the presence of kynurenine). Here is the method:
As described in Example 14, antibody 6RNMSC1-2_F02 which has antigen-binding activity in the presence of kynurenine, and the known anti-hIL-6R antibody MRA were subjected to ELISA under the two conditions described in Table 20. The antigen used was biotin-labeled hIL-6R.
First, a StreptaWell 96 microtiter plate (Roche) was coated at room temperature for one hour or more with 100 μl of PBS containing the biotin-labeled antigen. After washing with Wash buffer to remove unbound antigen from the plate, each well was blocked for one hour or more with 250 μl of Blocking Buffer. After Blocking Buffer was removed from each well, each of the purified IgGs was prepared to 2.5 μg/ml under condition 2 shown in Table 20, and aliquoted at 100 μl into the plate. The plate was allowed to stand at room temperature for one hour to allow binding of each IgG to the antigen in each well. After washing with Wash Buffer containing 100 μM kynurenine, an HRP-conjugated anti-human IgG antibody (BIOSOURCE) diluted with Sample Buffer containing kynurenine was added to each well. The plate was incubated for one hour. Following wash with Wash Buffer containing kynurenine, the TMB single solution (ZYMED) was added to each well. The chromogenic reaction in the solution of each well was terminated by adding sulfuric acid. Then, the developed color was assessed by measuring absorbance at 450 nm.

Test [2] has as its target T1, hIL-6R. The test is described as follows: IgG ELISA, binding to hIL-6R in the presence or absence of each small molecule, amino acid or amino acid metabolite. As for the experimental part:
Three types of antibodies obtained: 6RNMSC1-2_F02 and 6RNMSC1-3_G02, and GC413 were subjected to ELISA under the nine conditions described in Table 3. Meanwhile, each small molecule was appropriately prepared at the concentrations shown in Table 3 using the buffers indicated in Table 19. The antigen used was biotin-labeled hIL-6R.
First, a StreptaWell 96 microtiter plate (Roche) was coated at room temperature for one hour or more with 100 μl of PBS containing biotin-labeled hIL-6R. After washing with Wash buffer to remove unbound biotin-labeled hIL-6R from the plate, each well was blocked for one hour or more with 250 μl of Blocking Buffer. After Blocking Buffer was removed from each well, the purified IgGs were prepared to 2.5 μg/ml in Sample Buffer containing small molecules at the final concentrations shown in Table 3, and each was aliquoted at 100 μl into the plate. The plate was allowed to stand at room temperature for one hour to allow binding of each IgG to biotin-labeled hIL-6R in each well. After washing with Wash Buffer containing small molecules at the final concentrations shown in Table 3, an HRP-conjugated anti-human IgG antibody (BIOSOURCE) diluted with Sample Buffer containing the same small molecules was added to each well. The plate was incubated for one hour. Following wash with Wash Buffer containing each small molecule, the TMB single solution (ZYMED) was added to each well. The chromogenic reaction in the solution of each well was terminated by adding sulfuric acid. Then, the developed color was assessed by measuring absorbance at 450 nm.
6RNMSC1-2_F02 described in Example 14, which has antigen-binding activity in the presence of kynurenine, and negative control GC413 were subjected to ELISA under the seven conditions described in Table 18. Meanwhile, each small molecule was appropriately prepared at the concentrations shown in Table 18 using the buffers indicated in Table 4. The antigen used was biotin-labeled hIL-6R. ELISA was carried out using the method described in Example 11.
In general terms: ELISA stands for enzyme-linked immunosorbent assay.

The subject of the next test is BaF/hIL-6R cells. The test is described as follows: Flow cytometry, binding to membrane-type hIL-6R on BaF/hIL-6R cells. The test is classed as cell-based. Here is the method:
6RNMSC1-2_F02 antibody which has an antigen-binding activity in the presence of kynurenine as described in Example 14 was assessed for its binding to soluble hIL-6R. As a first step in assessing the ADCC activity of 6RNMSC1-2_F02 to hIL-6R-expressing cells, 6RNMSC1-2_F02 was evaluated as to whether it has the ability to bind to membrane-type hIL-6R expressed in hIL-6R-expressing cells. Specifically, the binding of 6RNMSC1-2_F02 to cells of the BaF/hIL-6R line (WO2012/073992) was assayed and analyzed using a flow cytometer. An appropriate number of BaF/hIL-6R cells were prepared and blocked with PBS containing 2% FBS on ice for one hour or more. Supernatant was removed from the blocked cells by centrifugation, and 100 μl of 6RNMSC1-2_F02 or the control antibody MRA (the heavy chain and light chain sequences are shown in SEQ ID NOs: 92 and 93, respectively) was added under two conditions: in the presence or absence of a final concentration of kynurenine at 100 μM. In this step, the antibodies were contacted with cell-membrane hIL-6R on ice for 30 minutes. […] Then, in the presence or absence of kynurenine, the complex was contacted with a secondary antibody (Beckman Coulter IM1627) that recognizes the antibody constant region. […] The binding of 6RNMSC1-2_F02 to the prepared cells was assayed and analyzed using the BD FACS cant II Flow Cytometer (BD).
(In flow cytometry, cells or beads pass a laser one at a time.)

B1: 6RNMSC1-2_F02: antibody that binds to hIL-6R in the presence of kynurenine; SEQ ID NOs: 86 and 87 (antibody, listed as Homo sapiens, V domains shown)
VH: QVQLVQSGAEVKKPGSSVKVSCKASGGTFSSYAISWVRQAPGQGLEWMGGIIPIFGTANYAQKFQGRVTITADESTSTAYMELSSLRSEDTAVYYCARDAPVVARPRGAFDIWGQGTMVTVSS
VL: DIVMTQTPLSSPVTLGQPASISCRSSQSLVHSDGNTYLSWLQQRPGQPPRLLIHEISNRFSGVPDRFSGSGAGTNFTLKISRVEAEDVGVYYCMQATQFPRTFGQGTKVEIK
As for B1, the “absorbance under condition 1 as compared to condition 2” value in the test with hIL-6R [1] is recorded as “markedly lower”. For the same molecule, the “absorbance under condition 5 compared to condition 1” value in the test with hIL-6R [2] (Table 18: condition 5 (3-hydroxykynurenine solution)) was “the same high absorbance”. Besides, in the test with hIL-6R [2] (Table 18: condition 7 (absence of small molecules) vs condition 1 (kynurenine solution)), the “absorbance under condition 7 as compared to condition 1” value was “markedly lower”. The “absorbance under other conditions” value is reported as “markedly lower” with hIL-6R [2] (Table 18: remaining conditions, incl. tryptophan) and “markedly lower” with hIL-6R [2] (remaining conditions of Table 3). Also, the “absorbance under condition 7 compared to condition 8” value with hIL-6R [2] (condition 7 (100 μM kynurenine)) was “the same”. For the same molecule, the “absorbance under condition 9 as compared to condition 8” value with hIL-6R [2] (condition 9 (in the absence of small molecules) vs condition 8 (complete small molecule cocktail solution)) was “markedly lower”. In addition, the “fluorescence (binding to membrane-type hIL-6R)” value is “not detectable” in the test with BaF/hIL-6R cells (in the absence of kynurenine) and “fluorescence shift was observed” in the test on BaF/hIL-6R cells (in the presence of 100 μM kynurenine).

The record behind these values is patent publication US11673947B2, “Target tissue-specific antigen-binding molecule” (Chugai Seiyaku Kabushiki Kaisha, priority 2012, dated 2023).
